Assay results from US20250051464A1 (IMMUNOME, published 2025).

Key:
[1] = molecular target: T1, Human EphA2 (ephrin receptor A2) (human, UniProt P29317 24-976); assay: IHC/IF score on frozen human tumor tissue, UCEC-endometriod
T1 construct: Endogenous protein in frozen human tumor tissue and tumor adjacent tissue, not a recombinant construct

[2] = molecular target: T1, Human EphA2 (ephrin receptor A2); assay: IHC/IF score on frozen human tumor tissue, RCC-clear cell
[3] = molecular target: T1, Human EphA2 (ephrin receptor A2); assay: IHC/IF score on frozen human tumor tissue, RCC-papillary
[4] = molecular target: T1, Human EphA2 (ephrin receptor A2); assay: IHC/IF score on frozen human tumor tissue, TNBC
[5] = molecular target: T1, Human EphA2 (ephrin receptor A2); assay: IHC/IF score on frozen human tumor tissue, NSCLC-SQ
[6] = molecular target: T1, Human EphA2 (ephrin receptor A2); assay: IHC/IF score on frozen human tumor tissue, UCEC-clear cell
[7] = molecular target: T1, Human EphA2 (ephrin receptor A2); assay: IHC/IF score on frozen human tumor tissue, HNC
[8] = molecular target: T1, Human EphA2 (ephrin receptor A2); assay: IHC/IF score on frozen human tumor tissue, Her2+ BRC
[9] = molecular target: T1, Human EphA2 (ephrin receptor A2); assay: IHC/IF score on frozen human tumor tissue, UCEC-papillary
[10] = molecular target: T1, Human EphA2 (ephrin receptor A2); assay: IHC/IF score on frozen human tumor tissue, URO
[11] = molecular target: T1, Human EphA2 (ephrin receptor A2); assay: IHC/IF score on frozen human tumor tissue, NSCLC-Adeno
[12] = molecular target: T1, Human EphA2 (ephrin receptor A2); assay: IHC/IF score on frozen human tumor tissue, ESC
[13] = molecular target: T1, Human EphA2 (ephrin receptor A2); assay: IHC/IF score on frozen human tumor tissue, ER+ BRC
[14] = molecular target: T1, Human EphA2 (ephrin receptor A2); assay: IHC/IF score on frozen human tumor tissue, OVA
[15] = molecular target: T1, Human EphA2 (ephrin receptor A2); assay: IHC/IF score on frozen human tumor tissue, PANC
[16] = molecular target: T1, Human EphA2 (ephrin receptor A2); assay: IHC/IF score on frozen human tumor tissue, PROC
[17] = molecular target: T1, Human EphA2 (ephrin receptor A2); assay: IHC/IF score on frozen human tumor tissue, GAC
[18] = molecular target: T1, Human EphA2 (ephrin receptor A2); assay: IHC/IF score on frozen human tumor tissue, ANC
[19] = molecular target: T1, Human EphA2 (ephrin receptor A2); assay: IHC/IF score on frozen human tumor tissue, CRC
[20] = molecular target: T1, Human EphA2 (ephrin receptor A2); assay: IHC/IF score on frozen human tumor tissue, STS
[21] = molecular target: T1, Human EphA2 (ephrin receptor A2); assay: IHC/IF score on frozen human tumor tissue, MELA
[22] = molecular target: T2, C-terminally His-tagged hEphA2-FN2 (Thr437-Asn534+His tag) (human, UniProt P29317 437-534); assay: SPR Biacore T200, 25 C, mIgG2a captured by anti-mouse Fc, FN2-His as analyte, steady-state fit, monovalent
T2 construct: SPR analyte; also called FN2 domain of hEphA2
T2 sequence (P29317 437-534 limits assumed): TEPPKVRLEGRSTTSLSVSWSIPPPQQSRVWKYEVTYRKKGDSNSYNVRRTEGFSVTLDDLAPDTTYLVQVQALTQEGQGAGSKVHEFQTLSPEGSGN
Method: Binding of antibodies to the FN2 domain of hEphA2 was measured using the Biacore® T200 SPR system at 25° C. using HBS-EP+ buffer (0.01 M HEPES pH 7.4, 0.15 M NaCl, 3 mM EDTA, 0.005% v/v Surfactant P20). Antibodies in mIgG2a format were captured at levels between 475-715 RU via an anti-mouse Fc antibody immobilized to a CM5 chip. Binding was assessed using a titration of C-terminally His-tagged hEphA2-FN2 (Thr437-Asn534+His tag) associated for 30 s or 75 s at 30 uL/min. Data was double-reference subtracted using both a surface without captured antibody and from injections of HBS-EP+ buffer. The equilibrium response was measured at 4 seconds before the end of association with a window of 5 seconds and fit using the Biacore T200 Evaluation Software 3.1 with the Steady State Affinity Model.

[23] = molecular target: T2, C-terminally His-tagged hEphA2-FN2 …; assay: SPR Biacore T200, 25 C, mIgG2a as ligand, FN2-His as analyte, 1:1 Langmuir
Method: Binding of EphA2 antibodies to the FN2 domain of hEphA2 was measured using the Biacore® T200 SPR system. Biacore® assays were conducted at 25° C. using HBS-EP+ buffer (0.01 M HEPES pH 7.4, 0.15 M NaCl, 3 mM EDTA, 0.005% v/v Surfactant P20) using the FN2 domain as the analyte with the antibodies in mIgG2a format as the immobilized ligand. Data was analyzed using 1:1 Langmuir binding model and steady-state model in Biacore Evaluation software.
C-terminally His-tagged human EphA2 FN2 domain (Thr437-Asn534+His tag) was used as the analyte. The analyte was associated for 120 seconds and dissociated for 100 seconds or 300 seconds at 30 uL/min.

T1 sequence (P29317 24-976 limits assumed): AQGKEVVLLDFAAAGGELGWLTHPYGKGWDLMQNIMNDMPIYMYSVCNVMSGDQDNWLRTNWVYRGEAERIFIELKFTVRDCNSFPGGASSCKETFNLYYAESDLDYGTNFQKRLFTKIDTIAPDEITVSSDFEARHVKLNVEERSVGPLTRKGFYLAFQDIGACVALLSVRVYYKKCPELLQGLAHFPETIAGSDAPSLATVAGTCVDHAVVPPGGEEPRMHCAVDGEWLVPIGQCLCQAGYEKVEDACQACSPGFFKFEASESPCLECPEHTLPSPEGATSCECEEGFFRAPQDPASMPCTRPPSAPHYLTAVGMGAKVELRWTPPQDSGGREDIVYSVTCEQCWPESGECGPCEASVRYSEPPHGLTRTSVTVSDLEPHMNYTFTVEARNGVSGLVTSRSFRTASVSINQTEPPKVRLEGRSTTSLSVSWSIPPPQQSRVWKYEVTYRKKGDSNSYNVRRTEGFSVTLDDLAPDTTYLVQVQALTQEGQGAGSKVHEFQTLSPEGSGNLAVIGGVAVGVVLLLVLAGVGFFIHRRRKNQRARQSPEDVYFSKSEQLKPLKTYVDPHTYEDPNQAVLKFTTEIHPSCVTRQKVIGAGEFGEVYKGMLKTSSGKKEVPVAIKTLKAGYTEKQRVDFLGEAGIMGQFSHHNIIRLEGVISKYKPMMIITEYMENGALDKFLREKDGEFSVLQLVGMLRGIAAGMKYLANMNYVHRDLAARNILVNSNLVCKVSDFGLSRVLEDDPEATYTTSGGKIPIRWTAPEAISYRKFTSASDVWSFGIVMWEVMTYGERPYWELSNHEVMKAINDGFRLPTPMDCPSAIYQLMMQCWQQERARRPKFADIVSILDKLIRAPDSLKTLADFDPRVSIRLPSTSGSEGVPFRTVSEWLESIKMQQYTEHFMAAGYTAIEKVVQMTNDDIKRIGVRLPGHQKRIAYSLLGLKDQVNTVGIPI

Row | IHC score [1] | IHC score [2] | IHC score [3] | IHC score [4] | IHC score [5] | IHC score [6] | IHC score [7] | IHC score [8] | IHC score [9] | IHC score [10] | IHC score [11] | IHC score [12] | IHC score [13] | IHC score [14] | IHC score [15] | IHC score [16] | IHC score [17] | IHC score [18] | IHC score [19] | IHC score [20] | Binder | other results
1 | 1 | 1 | 1 | 1 | 1 | 1 | 2 | 2 | 2 | 1 | 2 | 2 | 1 | 2 | 1 | 1 | 2 | 2 | 1 | 2 | AB-009812 (antibody, mouse IgG2a, V domains shown) VH: QVQLQQWGAGLLKPSETLSLTCAVYGGSFSDYYWSWIRQPPGKGLEWIGEVNHSGSINYNNYNPSLKSRVTISVDPSKNQFSLKLTSVTAADTAVYYCAKPLRPHCTNGVCYSGDAFDIWGQGTMVTVAS VL: SYVLTQPPSVSVAPGQTARITCGGNNIGSKNVHWYQQKPGQAPVLVVYDDSDRPSGIPEQFSGSNSGNTATLTISRVEAGDEADYYCQVWDSSSDHLVFGGGTKLTVL | IHC score [21]: 2
2 |  |  |  |  |  |  |  |  |  |  |  |  |  |  |  |  |  |  |  |  | AB-010699 (mIgG2a format) (antibody, V domains shown, Tested with mouse IgG2a constant regions (mIgG2a format)) VH: QVQLQQWGAGLLKPSETLSLTCAVYGGSFSGYYWSWIRQPPGKGLEWIGEINHRGSINYNNYNPSLKSRVTISVDTSKNQFSLKLSSVTAADTAVYYCAKPLRPHCINGVCYSGDAFDIWGQGTMVTVAS VL: SYVLTQPPSVSVAPGQTARITCGGNNIGYKNVHWYQQKPGQAPVLVVYDDSDRPSGIPERFSGSNSGNTATLTISRVEAGDEADYYCQVWDHSSDHVVFGGGTKLTVL | Kd [22]: 18.9 nM; Kd [23]: 19 nM; koff [23]: 0.075 s⁻¹; kon [23]: 3.9e+06 M⁻¹ s⁻¹
3 | 1 | 1 | 1 | 1 | 1 | 2 | 2 | 2 | 2 | 1 | 2 | 2 | 1 | 2 | 1 | 1 | 2 | 2 | 1 | 2 | AB-009815 (antibody, mouse IgG2a, V domains shown) VH: QVQLQQWGAGLLKPSETLSLTCAVYGGSFSDYYWSWIRQPPGKGLEWIGEVNHRGSINYNNYNPSLKSRVTISVDTSKNQFSLKLTSVTAADTAVYYCAKPLRPHCTNGVCYSGDAFDIWGQGTMVTVAS VL: SYVLTQPPSVSVAPGQTARITCGGNNIGSKNVHWYQQKPGQAPVLVVYDDSDRPSGIPEQFSGSNSGNTATLTISRVEAGDEADYYCQVWDSSSDHLVFGGGTKLTVL | IHC score [21]: 2
4 | 1 | 1 | 1 | 1 | 1 | 2 | 2 | 2 | 2 | 1 | 2 | 2 | 1 | 2 | 1 | 1 | 2 | 2 | 1 | 2 | AB-009816 (antibody, mouse IgG2a, V domains shown) VH: QVQLQQWGAGLLKPSETLSLTCAVYGGSFSDYYWSWIRQPPGKGLEWIGEVNHRGSINYNNYNPSLKSRVTISVDASKNQFSLKLTSVTAADTAVYYCAKPLRPHCTNGVCYSGDAFDIWGQGTMVTVAS VL: SYVLTQPPSVSVAPGQTARITCGGNNIGSKNVHWYQQKPGQAPVLVVYDDSDRPSGIPEQFSGSNSGNTATLTISRVEAGDEADYYCQVWDSSSDHLVFGGGTKLTVL | IHC score [21]: 2
5 | 1 | 1 | 1 | 1 | 1 | 2 | 2 | 1 | 2 | 1 | 2 | 2 | 1 | 2 | 1 | 1 | 2 | 2 | 1 | 2 | AB-009813 (antibody, mouse IgG2a, V domains shown) VH: QVQLQQWGAGLLKPSETLSLTCAVYGGSFSDYYWSWIRQPPGKGLEWIGEVNHAGSINYNNYNPSLKSRVTISVDPSKNQFSLKLTSVTAADTAVYYCAKPLRPHCTNGVCYSGDAFDIWGQGTMVTVAS VL: SYVLTQPPSVSVAPGQTARITCGGNNIGSKNVHWYQQKPGQAPVLVVYDDSDRPSGIPEQFSGSNSGNTATLTISRVEAGDEADYYCQVWDSSSDHLVFGGGTKLTVL | IHC score [21]: 2
